In patent publication US9872921B2, “DE-N-acetyl sialic acid antigens, antibodies thereto, and methods of use in cancer therapy” (priority 2004, dated 2018):

Columns and labels:
SK-MEL 28 cells = assay: Cell cycle analysis by propidium iodide staining and flow cytometry; format: cell-based, human; details: 100 nM, 48 h
Description: To further assess the affect of SEAM 3 mAb on cell growth, the stage of the cell cycle after treatment with SEAM 3 was determined. In this experiment, the cells were stained with the fluorescent DNA binding dye propidium iodide to characterize cell populations in various stages of the cell cycle and the effects of adding control antibodies, nocodazole (a drug that arrest the cells in mitosis) and SEAM 3.
Approximately 10^5 SK-MEL 28 cells were plated on a 96-well tissue culture plate and allowed to adhere. After 24 h the medium was replaced with one that had either antibody or drug and incubated for a further 48 h. Cells were spun (to collect any cells that may have detached), and fixed in 70% ice-cold methanol (added drop wise) for at least 30 minutes at 4° C. The cells were washed twice with PBS, and to ensure that only DNA was stained, the fixed cells were treated with ribonuclease I (100 μg/ml, source) for 30 minutes at 37° C. Propidium iodide (50 μg/ml) was added and samples were analyzed using a Guava EasyCyte flow cytometer.

SEAM 3 = assay: Inhibition ELISA of SEAM 3 binding to plate-coated N-Pr NmB PS-dodecylamine; set-up: species or system murine; details: dilution required to decrease absorbance at 405 nm by 50%
Description: The ability of colominic acid and N-Pr NmB PS to inhibit binding of SEAM 3 to in an ELISA was compared to sialidase A-treated colominic acid and N-Pr NmB PS prepared as described above. The wells of microtiter plates (Immulon 2; Dynatech Laboratories, Inc.) were coated with N-Pr NmB PS-dodecylamine (prepared as described in Example 1) in phosphate buffered saline (PBS; pH 7.4). The plates were incubated overnight at 4° C. After washing three times with PBS, the wells were filled with 200 μl of blocking buffer (PBS containing 1% bovine serum albumin [BSA, Sigma] and 0.1% sodium azide; [pH 7.4]) and then incubated for 30-60 min at room temperature to block nonspecific binding sites. The plates were washed three times with PBS buffer. Inhibitors were serially diluted in blocking buffer on the plate in total final volume of 50 μl. SEAM 3 diluted in blocking buffer to a concentration that produced an OD405 nm of 0.5 when developed with substrate was added to the wells in a volume of 50 μl. The plates were covered and incubated overnight at 4° C. […] The absorbance at 405 nm after 30 minutes incubation at ambient temperature was measured using a BioRad Model 550 microtiter plate reader. The relative activity of each sample was compared by determining the dilution required to decrease the absorbance at 405 nm by 50% of the absorbance observed in wells containing SEAM 3 but no inhibitor.

[1] = test system: polysialic acid antigens expressed by the human neuronal cell line CHP-134; details: cited from earlier work
NmB strain M7 = assay: Fluorescence microscopy of SEAM 12 binding to capsule PS on NmB strain M7 grown with N-acyl mannosamine supplements; set-up: species or system Neisseria meningitidis
Text: The trihaloacetylated mannosamine was incorporated into NmB PS by inoculating colonies of NmB strain M7 grown overnight at 37 degrees C. in 5% carbon dioxide on a freshly streaked chocolate agar plate to an OD620 nm of 0.1 in Muller-Hinton broth supplemented with 5 millimolar N-acyl mannosamine For example, N-acetyl, -trichloroacetyl, -trifluoroacetyl mannosamine. Stain M7 contains a transposon the interrupts the gene encoding N-acetyl-D-glucosamine-6-phosphate 2 epimerase (Swartley et al. 1994, J. Bact. 176:1530; Swartley et al. 1996, J. Bact. 178:4052). As a result, the bacteria cannot synthesize capsule PS unless the growth media was supplemented with N-acetyl mannosamine Therefore, the N-acyl content of the capsule PS synthesized in this system can be determined by the N-acyl or mixture of N-acyl mannosamine provided in the growth media. The bacteria were grown at 37 degrees C. […]).
There is no binding of SEAM 12 to M7 without N-acyl mannosamine or with N-trichloroacetyl mannosamine supplement (FIG. 37, panels B and C). […] However, SEAM 12 does bind to the capsule PS containing N-trifluoroacetyl groups (FIG. 37, panel D, shaded gray in the figure) since the trifluoromethyl group is nearly the same size as the methyl group of the N-acetyl derivative.

SEAM 3, sequence (as listed by the source): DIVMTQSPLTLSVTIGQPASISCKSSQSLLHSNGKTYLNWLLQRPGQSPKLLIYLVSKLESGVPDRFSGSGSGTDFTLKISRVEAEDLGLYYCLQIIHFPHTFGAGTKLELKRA
SEAM 3, sequence (as listed by the source): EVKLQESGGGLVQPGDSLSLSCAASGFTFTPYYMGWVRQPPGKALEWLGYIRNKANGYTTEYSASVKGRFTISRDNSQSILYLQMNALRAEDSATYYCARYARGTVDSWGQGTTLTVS

For `COC(=O)Nc1nc2cc(C(=O)c3cccs3)ccc2[nH]1` [nocodazole, reference compound], the “cells arrested in G2/M phase” value (SK-MEL 28 cells) was “approximately 50%”.

In the case of “poly alpha (2→8) N-acetyl neuraminic acid [colominic acid]”, the “activity for binding to SEAM 3, fold less than N-Pr NmB PS” value (SEAM 3) is reported as “approximately 200 fold”.

B1: SEAM 35: anti-N-Pr NmB PS murine mAb (IgG2a) (antibody, V domains shown)
VH: EVKLEESGGGLVQPGGSLSLSCAASGFTFTDYYLSWVRQPPGKALEWLGFIRNTANGYTTEYSASVKGRFTIARDNSQSILTLQMNALRAEDSATYYCARWSRRAMDYWGQGTSVTVS
VL: DIVMTQSPISMSMSLGERVTLSCKASENVGTYVSWYQQKPEQSPKLLISGASNRYTGVPDRFTGSGSATDFTLTISSVQAEDLADYHCGQSYNYPYTFGGGTKLEIKRA
modifications: mouse
For B1, the “cross-reactivity with polysialic acid antigens expressed by CHP-134” value [1] is listed as “greater cross-reactivity”.

B2: SEAM 12: anti-N-Pr NmB PS murine mAb (IgG2a) (antibody, V domains shown)
VH: QVKLEQSGGGLVRPGNSLKLSCVTSGFTFINYRMHWLRQPPGKRLEWIAVITDNSDNYVVNYAESVKGRFAISRDDSKSSVYLEMNRLREEDTATYFCSRSRRSFFDYWGQGTTLTVS
VL: DIVMTQTTVIMSASPGEKVTMTCSASSSVTYMHWYQQKSRTSPKLWIYDTSKLASGVPGRFSGSGSGNSYALTISSMEPEDVATYYCFQGSGYPLTFGAGTKLGLKRA
modifications: mouse
With B2 the “SEAM 12 binding to capsule PS” value (NmB strain M7; capsule PS containing N-trifluoroacetyl groups) was “does bind”, the “SEAM 12 binding to M7” value (NmB strain M7; growth media supplemented with N-acetyl mannosamine) was “binding is indicated by the presence of red fluorescence” and the “SEAM 12 binding to M7” value (NmB strain M7; with N-trichloroacetyl mannosamine supplement) was “no binding”. For the same molecule, the “SEAM 12 binding to M7” value (NmB strain M7; without N-acyl mannosamine) was “no binding”.
